In patent publication US20230414779A1, “ANTIGEN-BINDING FRAGMENTS AND USES THEREOF” (NewSouth Innovations Pty Limited, priority 2020, published 2023):
“Also recorded” adds a separate entry of the source. Like-named read-outs stand apart in the source and are kept apart here. No end group written: not given here.

What was measured:
FcγRIIA = molecular target: T1, FcγRIIA (Homo sapiens, UniProt P12318); assay: Binding of the linker peptide alone; conditions: source not stated
T1 sequence (P12318 34-317): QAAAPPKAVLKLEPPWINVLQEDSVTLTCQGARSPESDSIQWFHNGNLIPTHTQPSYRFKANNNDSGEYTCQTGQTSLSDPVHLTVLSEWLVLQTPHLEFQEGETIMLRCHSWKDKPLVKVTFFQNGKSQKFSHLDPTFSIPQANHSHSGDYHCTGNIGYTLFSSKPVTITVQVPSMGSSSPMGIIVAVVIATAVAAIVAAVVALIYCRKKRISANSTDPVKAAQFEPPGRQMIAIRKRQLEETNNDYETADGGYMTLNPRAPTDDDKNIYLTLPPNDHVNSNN

human platelets [1] = format: cell-based; conditions: for Inhibition of platelet aggregation of HIT-antibody: concentration giving inhibition; for inhibition of HIT serum induced aggregation: 40 nM, human platelets, HIT serum and heparin; for EC50: HRU5 relative to the parental scFv, read-out: activity (effective concentration)
Protocol: Platelet aggregation assays were performed by mixing samples at 1200 rpm, 37° C. for up to 25 min in an aggregometer (Chrono-log Aggro/Link™). The reaction mixture (500 μl) consisted of 300 μl of healthy donor PRP, HIT patient serum or purified Total HIT IgG (up to 14 μM, adjusted according to different donor platelets), heparin (0.5 IU/ml) and various concentrations of HRU5-HRU7. The degree of aggregation was determined by the increase in light transmittance. Platelet aggregation levels over 20% were considered positive.
With antibody/IC-induced platelet aggregation, time delay (time lapse) is a more sensitive measure of platelet aggregability compared with the extent of platelet aggregation as different antibodies invariably cause the same maximum extent of platelet aggregation after variable time delays or time lapses (as illustrated in FIG. 2B). Various concentrations of parental scFv, HRU5 or HRU6 were used. Plots were fitted to non-linear regression analysis (sigmoidal dose-response curves) (FIG. 2C). […] Here, the degree of inhibition of platelet aggregation was determined at various concentrations and analysed as shown in FIG. 2D.
Inhibition of platelet aggregation of HIT-antibody by HRU5 ˜3.5 mg/ml.

platelets [2] = assay: Thrombin-induced platelet aggregation; format: cell-based, human; conditions: 0.3 U of thrombin
Description: For thrombin induced platelet aggregation samples were mixed as described above in the presence of 0.3 U of thrombin.

platelets [3] = assay: Serotonin release assay (platelet activation); format: cell-based, human; conditions: 0.1 IU/ml heparin; induced by KKO (FIG. 4) / HIT serum
Description: FIG. 4 is a graph of the serotonin release assay. Serotonin release was induced by a HIT-like monoclonal antibody (KKO) and was inhibited by parental scFv, HRU5, HRU6 or HRU7. Heparin was used at therapeutic low concentrations (L, 0.1 U) and at inhibitory high concentration (H,100 U). Dotted lines denote 0% and 20% CPMA. Values over 20% are considered positive. CPMA, counts per minute.
SRA is the gold standard to confirm the presence of platelet-activating HIT antibodies. Platelets from a healthy donor were labelled with Hydroxytryptamine Binoxalate, 5-[2-^14C]-(Serotonin) (^14C-5HT) (1.5 μl/ml) and mixed with heparin (0.1 (low dose) or 100 IU/ml (high dose)) in the presence of HIT serum. The protein of interest was then added to the reaction and incubated at room temperature for 1 h. After centrifugation the supernatant was collected and the ^14C-serotonin released was measured in a scintillation counter. The percentage of ^14C-serotonin released was calculated by determining the proportion in the supernatant relative to the remaining ^14C-serotonin in platelets. A test result is defined as positive if more than 20% serotonin release is detected with a therapeutic heparin concentration of (0.1 IU/ml) but not with a high dose of heparin (100 IU/ml).

thrombin = molecular target: T2, thrombin (Homo sapiens, UniProt P00734); assay: Thrombin time assay in plasma; format: biochemical; conditions: undiluted plasma, increasing concentrations, in words
T2 construct: purchased Diagnostica STAGO S.A.A
Protocol: FIG. 3B is a graph of a Thrombin Time Delay assay for HRU6 and HRU7. Increasing concentrations of HRU molecules were incubated with undiluted plasma prepared from ACD anticoagulated blood. Clotting time of control plasma (untreated plasma) is shown corresponding to 0 concentration (closed circle). […] Clotting time is shown in sec.
The STA-Thrombin kit (Diagnostica STAGO S.A.A.) was used for the determination of the thrombin time by a haemostasis analyser. Plasma was prepared from ACD anticoagulated normal blood by centrifugation for 10 min at 2500×g. 500 μl of undiluted plasma, in the absence and presence of different inhibitor concentrations (e.g., HRU6 and HRU7), was analysed. Thrombin time of the plasma was determined by the analyser.
HRU6 and HRU7 also contain anti-thrombin activity provided by the lepirudin and bivalirudin moieties respectively. The Hemoclot thrombin inhibitor assay was used to determine the anti-clotting activity. The normal clotting time range is 15-24 sec.

human platelets [4] = assay: Platelet binding, flow cytometry (platelet-based fluorescent assay); conditions: for binding to human platelets: labelled scFvs, flow cytometry, in words; for Kd: binding to human platelets, non-linear regression, one-site specific binding (FIG. 1D)
Protocol: FIG. 1D provides graphs of platelet-based fluorescent assay measurements with KD and R^2 values for the parental scFv, HRU5 and HRU6. Non-linear regression analysis (one-site specific binding) was used to determine KD and R^2 values. GMF, geometric mean fluorescence.
(§1) Platelet-rich plasma (PRP) was obtained from whole blood after centrifugation at 200×g for 10 min. Washing/Suspension buffer (PBS, 0.5% BSA, 25 mM EDTA, pH 6.8) was used for platelet preparation throughout the experiment. 4 μl of PRP was incubated with various concentrations of fluorescently labelled HRU molecules for 30 min. Cells were washed once with 500 μl of buffer (PBS, 0.5% BSA, 25 mM EDTA, pH 6.8), suspended in 200 μl of PBS and analysed by flow cytometry (Cantoll, BD Biosciences).

[5] = molecular target: T3, human Fc gamma receptor IIA (FcγRIIA) (human, UniProt P12318 34-317); assay: platelet-based fluorescent assay (flow cytometry), one-site specific binding fit
T3 construct: whole, on cells; also called FcgRIIA; CD32a
T3 sequence (looked up): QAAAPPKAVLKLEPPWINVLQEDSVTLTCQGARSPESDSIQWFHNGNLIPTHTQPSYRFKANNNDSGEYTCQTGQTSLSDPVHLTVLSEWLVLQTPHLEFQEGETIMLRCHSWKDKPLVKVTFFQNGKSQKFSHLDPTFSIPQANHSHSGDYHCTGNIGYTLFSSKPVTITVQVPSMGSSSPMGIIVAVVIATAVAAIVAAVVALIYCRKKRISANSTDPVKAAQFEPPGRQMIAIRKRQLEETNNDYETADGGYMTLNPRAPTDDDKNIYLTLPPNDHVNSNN
Protocol: as §1

[6] = test system: FcγRIIA/hPF4 double transgenic mice; assay: Animal model of HIT (KKO plus heparin), lung thrombi by fluorescence; format: in vivo, mouse; conditions: 3.49×10^−11 moles per gram (~1 microgram/g)
Protocol: The mice used in these experiments were described in Reilly et al., “Heparin-induced thrombocytopenia/thrombosis in a transgenic mouse model requires human platelet factor 4 and platelet activation through FcγRIIA” Blood. 2001; 98(8):2442-2447. Animals were injected intravenously (iv) with HIT-like MoAb KKO. Heparin was injected intraperitoneally at 1 U/g following IgG injection. In some experiments, HRU molecules were also injected via the iv route. For in vivo platelet labelling anti-CD42c-Dylight649 (Emfret) was injected iv at 1 μg/g. Platelet counts were measured before treatment and at 1 h, 3 h and 5 h following treatment. Lungs were harvested 4 h after treatment, fixed in formalin and scanned for fluorescence in an IVIS Lumina Spectrum CT Spectrometer (PerkinElmer).
Mouse platelets were labeled in vivo with anti CD42c-Dylight649 antibody. The animals were treated with the HIT-like monoclonal antibody KKO plus heparin in the absence (vehicle) or presence of 3.49×10^−11 moles per gram (˜1 microgram/g) of parental scFv or HRU5. Fixed lungs from these mice were scanned with an IVIS Lumina Spectrum CT. There was clear accumulation of florescence in lungs treated with KKO plus vehicle, indicative of the presence of platelet rich thrombi. […] This finding is consistent with the findings of the in vitro experiments and microfluidics studies. […]

[7] = molecular target: T3, human Fc gamma receptor IIA (FcγRIIA); assay: cell-based or functional assay
[8] = test system: FcγRIIa+/hPF4+ mouse lungs; assay: Platelet accumulation in FcγRIIa+/hPF4+ mouse lungs (FIG. 8); format: in vivo
Description: FIG. 8 is a graph of radiant efficiency showing the level of platelet accumulation in FcγRIIa+/hPF4+ mouse lungs.

## WAWVWLTETAV [FcγRIIA binding peptide, reference compound]
FcγRIIA
  Kd: 0.5 µM
Human platelets [1]
  IC50: 55 µM
Human platelets [1]; serum from a HIT patient
  Inhibition of platelet aggregation of HIT-antibody: 100 µM
Human platelets [1]; peptide alone, FIG. 10
  capacity to inhibit HIT serum-induced aggregation: low
Human platelets [1]; printed as '3,000 times lower'
  IC50 of peptide versus EC50 of the parental scFv: 3,000 times

B1: HRU7: HRU5 linked to bivalirudin (an anticoagulant peptide) by a Ser2Gly12 linker (protein)
scFv: EVQLVESGPELKKPGETVKISCKASGYTFTNYGMNWVKQAPGKGLKWMGWLNTYTGESIYPDDFKGRFAFSLETSASTAYLQINNLKSEDTATYFCARGDYGYDDPLDYWGQGTSVTVSSGGGGWAWVWLTETAVGGGGSDIVMTQAPPSVPVTPGESVSISCRSSKSLLHTNGNTYLHWFLQKPGQSPRLLIYRMSVLASGVPDRFSGSGSGTDFTLKISRVEAEDVGVYYCMQHLEYPLTFGAGTKLEIKRAGGGGSGGGGSGGGGFPRPGGGGNGDFEEIPEEYLHHHHHH
Platelets [2]
  inhibition of thrombin-induced platelet aggregation: inhibit thrombin-induced platelet aggregation in a dose dependent manner
Platelets [3]
  14C-serotonin release: inhibited
thrombin
  thrombin clotting time: significant increases in thrombin clotting time; also recorded: prolong clotting time in a dose-dependent manner
Human platelets [4]
  binding to human platelets: stronger binding to human platelets than expected

B2: HRU5 (scFv)
scFv: EVQLVESGPELKKPGETVKISCKASGYTFTNYGMNWVKQAPGKGLKWMGWLNTYTGESIYPDDFKGRFAFSLETSASTAYLQINNLKSEDTATYFCARGDYGYDDPLDYWGQGTSVTVSSGGGGWAWVWLTETAVGGGGSDIVMTQAPPSVPVTPGESVSISCRSSKSLLHTNGNTYLHWFLQKPGQSPRLLIYRMSVLASGVPDRFSGSGSGTDFTLKISRVEAEDVGVYYCMQHLEYPLTFGAGTKLEIKRAHHHHHH
modifications: AF488 (fluorescent) label in the flow cytometry binding assays; site not stated
notes: also called HRU5 scFv; Peptide in the linker
[5]
  Kd: 0.282 µM

B3: HRU5: Humanized variable heavy and variable light chains derived from the IV.3 MoAb linked with a GGGGWAWVWLTETAVGGGGS linker (protein)
scFv: EVQLVESGPELKKPGETVKISCKASGYTFTNYGMNWVKQAPGKGLKWMGWLNTYTGESIYPDDFKGRFAFSLETSASTAYLQINNLKSEDTATYFCARGDYGYDDPLDYWGQGTSVTVSSGGGGWAWVWLTETAVGGGGSDIVMTQAPPSVPVTPGESVSISCRSSKSLLHTNGNTYLHWFLQKPGQSPRLLIYRMSVLASGVPDRFSGSGSGTDFTLKISRVEAEDVGVYYCMQHLEYPLTFGAGTKLEIKRAHHHHHH
Platelets [3]
  14C-serotonin release: inhibited
Human platelets [1]
  inhibition of HIT serum induced aggregation: completely inhibited
  EC50: 0.0088 µM
Human platelets [1]; HIT serum-induced platelet aggregation, in words
  activity relative to the parental scFv (EC50 and IC50): increase in activity
Human platelets [1]; converted from mg/ml
  Inhibition of platelet aggregation of HIT-antibody: ~0.09386 µM
Human platelets [1]; serum from a HIT patient
  Inhibition of platelet aggregation of HIT-antibody: ~3.5 mg/mL
thrombin
  thrombin clotting time: did not influence clotting time; also recorded: does not prolong clotting time
Human platelets [4]
  Kd: 0.298 µM
  binding to human platelets: strong binding to platelets
[6]
  inhibition of thrombus accumulation in lungs: inhibition of thrombus accumulation; also recorded: Clot inhibition was much greater in mice treated with HRU5 than with parental scFv

B4: Humanized scFv (parental scFv) derived from the IV.3 monoclonal antibody (scFv)
scFv: EVQLVESGPELKKPGETVKISCKASGYTFTNYGMNWVKQAPGKGLKWMGWLNTYTGESIYPDDFKGRFAFSLETSASTAYLQINNLKSEDTATYFCARGDYGYDDPLDYWGQGTSVTVSSGGGGSGGGGSGGGGSDIVMTQAPPSVPVTPGESVSISCRSSKSLLHTNGNTYLHWFLQKPGQSPRLLIYRMSVLASGVPDRFSGSGSGTDFTLKISRVEAEDVGVYYCMQHLEYPLTFGAGTKLEIKRAHHHHHH
modifications: AF488 (fluorescent) label in the flow cytometry binding assays; site not stated
notes: Arranged VH-linker-VL; also called HRU4
[5]
  Kd: 0.298 µM
[7]
  EC50 (platelet aggregation induced by HIT serum): 0.018 µM

B5: parental scFv: Humanized scFv derived from anti-FcγRIIA IV.3 monoclonal antibody, VH and VL joined by flexible GGGGS linker (protein)
scFv: EVQLVESGPELKKPGETVKISCKASGYTFTNYGMNWVKQAPGKGLKWMGWLNTYTGESIYPDDFKGRFAFSLETSASTAYLQINNLKSEDTATYFCARGDYGYDDPLDYWGQGTSVTVSSGGGGSGGGGSGGGGSDIVMTQAPPSVPVTPGESVSISCRSSKSLLHTNGNTYLHWFLQKPGQSPRLLIYRMSVLASGVPDRFSGSGSGTDFTLKISRVEAEDVGVYYCMQHLEYPLTFGAGTKLEIKRAHHHHHH
Platelets [3]
  14C-serotonin release: inhibited
Human platelets [1]
  inhibition of HIT serum induced aggregation: completely inhibited
  EC50: 55 µM
[8]
  inhibition of thrombosis (platelet accumulation in lungs, radiant efficiency): strong inhibition of thrombosis
Human platelets [4]
  Kd: 0.282 µM
[6]
  inhibition of thrombus accumulation in lungs: inhibition of thrombus accumulation
